# The RNAGym collection of RNA variant scans (doi:10.1073/pnas.2313332121)
# B1: TPR t1 (parent)
# chain: GACCAAUCUGCCCUCAGAGCUCGAGAACAUCUUCGGAUGCAGAGGAGGCAGGCUUCGGUGGCGCGAUAGCGCCAACGUCCUCAACCUCCAAUGCAUCCCACCACAUGAUGAUGCCUGAAGAGCCUUGGUUUUUUG
# Variants of: B1
# Experiment: polymerase ribozyme fitness, log enrichment relative to wild type (log ratio); higher = more active; in vitro selection for triplet polymerase activity
# Procedure, shortened: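 PCR was used to build mutant libraries for each subunit of a heterodimeric triplet polymerase ribozyme, which were then transcribed. A single in vitro selection round, in triplicate, used a frozen incubation at −7 °C and recovered extended constructs by gel excision, streptavidin beads and RT-PCR. Fitness is the logarithm of genotype enrichment relative to wild-type enrichment, averaged over replicates with inverse-variance weights. The logarithm is base 2, and after Illumina sequencing only genotypes with ≥10 input reads and ≥1 read per output were kept.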
row,Variant,polymerase ribozyme fitness (log ratio)
1,C56G A83U C115U,-2.71
2,C56G C89U,-0.286
3,C56G C72A C79U G117U,-4.93
4,U55G C56A U106A,-1.04
5,C56G C72A C79U,-1.41
6,U54G C72U C97U,-0.381
7,U55C G71A A84U C102A C104U,-3.41
8,C56G C64U C79A,-1.17
9,U55A C86G U130A,-0.641
10,U55G C73A,0.256
11,U54G G93U A95C C101A G120A,-2.9
12,U55A C88A,0.08
13,C56A U129A,-1.22
14,C56A U129C,-0.603
15,C56A C94G C101A U116G,-4.75
16,U55A G69U,0.503
17,U54G G113U,-3.26
18,C56A C82U,-0.413
19,U55C C115G G122A,-1.84
20,C56G G57C U92G U96A U132A,-3.72
21,C56A C72G U78C,-1.29
22,U55C G57U A66C C123G,-0.734
23,C56A A121C,0.751
24,C56G C79G C124U,-0.0923

row,Variant,polymerase ribozyme fitness (log ratio)
1,U55G G61C,-1.85
2,C56G C79A A83U A90C C114A,-7.42
3,C56A C64U G120C,-2.77
4,U54G G113C U126C,-3.09
5,U54G U59C U130A,-1.81
6,C56A G63A U78C,-4.18
7,C56A C70A,-2.72
8,U55G G69A,-1.67
9,U55G G69C,-1.57
10,C56A G71U U81G A111C A119G G135A,-4.66
11,C56A C64U C114A,-2.59
12,U55C A111U G117A,-6.33
13,U55G U87A C98G U109G A121C,-6.47
14,C56A C64A G93A C104A U109G A111C,-5.87
15,U54G G60A,-4.1
16,C56G A66G C88U C115A,-1.71
17,U54G C85G G113C A118C,-4.79
18,C56G C62U A105U U129C,-3.68
19,U54G G69U A121C U126A,-0.813
20,U54G C124U,1.5
21,U55G A90C U92G C101A,-3.67
22,C56G A84G,-1.43
23,C56G G57U G65A C101G A111C,-6.81
24,U54G U59A C80U C123A U129C,-1.82

row,Variant,polymerase ribozyme fitness (log ratio)
1,U54C U59C C94U A111G G128A U131A,-3.64
2,U54C U59C A119G,1.11
3,C56A C82G A91C G93C,-3.53
4,U54G G122A G128C,-2.84
5,C56A C98U,-1.91
6,C56A C98A,-5.59
7,C56A U109A,-5.84
8,C56A U109G,-4.29
9,C56A U109C,-3.16
10,C56A G77C C124A,1.47
11,U55G C72A U106G G113U U133A,-5.76
12,U55C A83C U116C,-2.32
13,C56A C101U U106C A111C,-0.932
14,C56A A95C C102A,-3.39
15,U55C C56U U59C,-0.103
16,U54G A121G,1.62
17,C56A G77U,-0.278
18,C56A G77C,-0.0761
19,U55A A74G C82G C123G,1.26
20,C56A C72A C76U U116G,-3.97
21,U54G U87C U92G,-2.64
22,C56A C82A C97U U129G,-2.1
23,C56A U78C G93A C123U,1.38
24,C56G A66U C88U C115A,-1.49

row,Variant,polymerase ribozyme fitness (log ratio)
1,C56A C73U C124U,1.55
2,U55G C72G C82U A100U G113U,-5.31
3,U54G C64U,-3.4
4,U54G G69U,-0.782
5,U54G G69C,-6.2
6,C56A G63U,-4.97
7,C56A G63A,-2.26
8,U54G C56G A83C G120U,-1.88
9,U55G C76A,-0.0105
10,C56A C62U C85U,-1.64
11,C56A G71U C85U C102A C124U,-4.27
12,C56A C114A G135A,-2.55
13,C56G G61A G77A,0.026
14,U54G G57A C72G C114U,-5.48
15,U55G C56A C79G C124U,-0.518
16,C56A C76A,-0.802
17,U55G U96A C115U,-2.35
18,C56A C80U C102A C124U,-2.1
19,U54G A68C C101A G113U,-7.46
20,U54C G69A U112C,-0.483
21,U55A G61U C85A C94A,-0.999
22,C56A U81A A83C,-2.85
23,U55A A66G C101G,-2.92
24,C56A C86A G120C,0.246

row,Variant,polymerase ribozyme fitness (log ratio)
1,C56G A68U,-6.1
2,C56A C123U,1.2
3,U55A G77C C104A,-1.93
4,U55C C56U U78C G93A C101A,-1.12
5,U55C A90G C94G G110C U116A A121G,-5.82
6,U55C C72G,-0.713
7,C56A G93U U112A U116G,-3.29
8,U55C G93C U133A,-0.554
9,C56G G61A,-2.31
10,C56A G69A G117U,-6.41
11,U54G G71A,-4.72
12,C56G A84G C114U,-4.61
13,C56G C70U C88U U106A,-2.44
14,C56A C64U C115A U126C,-2.05
15,C56G C72A G110U A111G,-2.87
16,U55G U109A,-5.03
17,C56A C124A,1.04
18,U54G U55G C73U C102G G110U G120C,-6.74
19,U55C A111U,-4.15
20,C56A C73U C88U U126G,-3.16
21,U55G G113C,-0.955
22,U55G C72U C88G,-1.33
23,U55C A83G C85U C124A,0.55
24,C56G A74U G110A U116G C124G G135U,-5.19

row,Variant,polymerase ribozyme fitness (log ratio)
1,U54G G63C C86G C114A U133C,-3.86
2,U55C C64U,-0.472
3,C56A C104U G117A,-1.3
4,U55G C123G,2.06
5,U54G G63C C70U,-1.73
6,C56A G128U U129G,-0.991
7,C56A C79U U87A,-0.983
8,U54C G77C C104U,-0.638
9,U55G C99U,-2.45
10,U54C G110A,-1.29
11,U55C G57A U106A G110U C123U,-3.04
12,C56A U81A C102A,-3.37
13,C56A U78G C86A G120U,-0.426
14,C56A G69U C79U A100U A103C,-3.37
15,C56G A91C C123A,0.632
16,U54G C89A U106A,-2.52
17,C56G C94A,-0.555
18,U55A C73U,0.172
19,U54G C115U,-0.94
20,C56G C72U,-1.05
21,C56G C72G,-2.27
22,C56G A95G A111U,-2.63
23,U55G C104U G113C C123A,-3.72
24,C56A G69U U78A A90C C97A A118U,-4.65

row,Variant,polymerase ribozyme fitness (log ratio)
1,C56G C70U U96A U132A,-3.39
2,U55A U81A,-0.637
3,C56G C72G C82A C114U,-4.76
4,U55A U81A G113A,-2.4
5,U55G G71A C101A,-1.24
6,C56G C124A U131A,1.66
7,U55G C85U,-0.919
8,U55A G117A,-1.34
9,C56A C79G,-0.642
10,C56A C82A C88U,-0.846
11,C56G C79A,-1.17
12,U54G U59C,-1.85
13,C56A C72G U106A,-1.22
14,C56A C70U C80U G120C C123G,-1.95
15,U55C G60A C82A,-0.172
16,U55G C56G U78A C99U U131A,-4.29
17,U55C U87G G135U,-1.63
18,C56A C99U A121C,-2.01
19,C56A G110A,-0.447
20,C56A G110C,-2.63
21,U55C G69C C79A,-3.59
22,U54G U78A G93U,-4.13
23,C56A G61A,-1.51
